Laboratory results taken from article PMC9643530.
“And” between values parts separate entries of the source, which are not always exact repeats. Equal entries are not always repeated. Where two headings read alike, the source gives them in different places.

Tests used:
[1] = molecular target: recombinant secreted NS1 (sNS1) of DENV2 clinical strain PVP94/07 with C-terminal His6-tag (dengue virus 2 (clinical strain PVP94/07)); assay: cryo-EM structure; recombinant sNS1 alone, 0.25 mg/mL; 2D and 3D classification (Relion, CryoSPARC); also imaged with 0.05% DDM
[2] = molecular target: recombinant secreted NS1 (sNS1) of DENV2 clinical strain PVP94/07 with C-terminal His6-tag (dengue virus 2 (clinical strain PVP94/07)); assay: cross-linking
[3] = molecular target: recombinant secreted NS1 (sNS1) of DENV2 clinical strain PVP94/07 with C-terminal His6-tag (dengue virus 2 (clinical strain PVP94/07)); assay: cryo-EM structure; recombinant sNS1 complexed with Fab 5E3, molar ratio 1:1.2, final sNS1 0.25 mg/mL
[4] = molecular target: recombinant secreted NS1 (sNS1) of DENV2 clinical strain PVP94/07 with C-terminal His6-tag (dengue virus 2 (clinical strain PVP94/07)); assay: AUC; sedimentation velocity, 72,446 x g, 20 °C, 1 mg/ml protein in NTE buffer, SEDFIT continuous c(s) distribution
[5] = molecular target: sNS1 from the supernatant of DENV2 PVP94/07 infected cells (dengue virus 2 (clinical strain PVP94/07)); assay: cross-linking
[6] = molecular target: sNS1 from the supernatant of DENV2 PVP94/07 infected cells (dengue virus 2 (clinical strain PVP94/07)); assay: cross-linking; remark: listed apart in the source

Substance	stoichiometry N [1]	stoichiometry N [2]	stoichiometry N [3]	stoichiometry N [4]	stoichiometry N [5]	stoichiometry N [6]
recombinant secreted NS1 (sNS1) of DENV2 clinical strain PVP94/07 with C-terminal His6-tag (natural protein)	6 and 4	6 and 4 and 2	2 and 4	4 and 6	–	–
sNS1 from the supernatant of DENV2 PVP94/07 infected cells (natural protein)	–	–	–	–	4 and 2	6
